Drawing on article PMC1352370, this text covers Kd and stoichiometry N for three substances.

The target of one experiment is APEG-1 (Homo sapiens) (UniProt Q15772). In words: analytical ultracentrifugation (sedimentation equilibrium).
Experiment [1] concerns the target Aortic Preferentially Expressed Protein-1 (APEG-1), full-length construct (2-113) (human). Description: AUC; sedimentation equilibrium, dimer to monomers; 15 mM Tris-HCl pH 7.4, 0.1 M NaCl, 0.1 mM EDTA, 0.2% NaN3, 10°C; Kd from concentration-dependent Mw.
Experiment [2] concerns the target ΔAPEG-1, truncated Aortic Preferentially Expressed Protein-1 (15-113) (human). In words: AUC; sedimentation equilibrium, dimer to monomers; 0 mM NaCl (salt series).
Experiment [3] has the same target. Description: AUC; sedimentation equilibrium, dimer to monomers; 15 mM Tris-HCl pH 7.4, 0.1 M NaCl, 0.1 mM EDTA, 0.2% NaN3, 10°C; Kd from concentration-dependent Mw.

Sequence of Aortic Preferentially Expressed Protein-1 (APEG-1), full-length construct (2-113) (natural protein) (Q15772 2-113): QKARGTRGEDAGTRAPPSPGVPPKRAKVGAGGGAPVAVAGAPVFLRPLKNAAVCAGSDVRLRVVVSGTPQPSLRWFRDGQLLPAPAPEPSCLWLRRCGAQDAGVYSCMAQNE

For the substance APEG-1, Q15772, in the experiment with APEG-1 (Homo sapiens), the dissociation constant Kd came out at 2 µM.
For “Aortic Preferentially Expressed Protein-1 (APEG-1), full-length construct (2-113) (natural protein)”, in experiment [1], the dissociation constant (Kd) turned out to be 20 µM and the stoichiometry N is 2.
In the case of “ΔAPEG-1, truncated Aortic Preferentially Expressed Protein-1 (15-113) (domain or fragment)”, the Kd in experiment [2] was 2 to 200 µM. Also, in experiment [3], the Kd was determined as 20 µM and the stoichiometry N came to 2.
